According to IntAct's records for PubMed 16115628:

B1: 1-phosphatidylinositol 4,5-bisphosphate phosphodiesterase delta-1 (Homo sapiens), P51178 (parent)
chain: MDSGRDFLTLHGLQDDEDLQALLKGSQLLKVKSSSWRRERFYKLQEDCKTIWQESRKVMRTPESQLFSIEDIQEVRMGHRTEGLEKFARDVPEDRCFSIVFKDQRNTLDLIAPSPADAQHWVLGLHKIIHHSGSMDQRQKLQHWIHSCLRKADKNKDNKMSFKELQNFLKELNIQVDDSYARKIFRECDHSQTDSLEDEEIEAFYKMLTQRVEIDRTFAEAAGSGETLSVDQLVTFLQHQQREEAAGPALALSLIERYEPSETAKAQRQMTKDGFLMYLLSADGSAFSLAHRRVYQDMGQPLSHYLVSSSHNTYLLEDQLAGPSSTEAYIRALCKGCRCLELDCWDGPNQEPIIYHGYTFTSKILFCDVLRAIRDYAFKASPYPVILSLENHCTLEQQRVMARHLHAILGPMLLNRPLDGVTNSLPSPEQLKGKILLKGKKLGGLLPPGGEGGPEATVVSDEDEAAEMEDEAVRSRVQHKPKEDKLRLAQELSDMVIYCKSVHFGGFSSPGTPGQAFYEMASFSENRALRLLQESGNGFVRHNVGHLSRIYPAGWRTDSSNYSPVEMWNGGCQIVALNFQTPGPEMDVYQGRFQDNGACGYVLKPAFLRDPNGTFNPRALAQGPWWARKRLNIRVISGQQLPKVNKNKNSIVDPKVTVEIHGVSRDVASRQTAVITNNGFNPWWDTEFAFEVVVPDLALIRFLVEDYDASSKNDFIGQSTIPLNSLKQGYRHVHLMSKNGDQHPSATLFVKISLQD

Variants of: B1
Details: with imb1_human KPNB1, Q14974
Sequence of imb1_human KPNB1, Q14974 (Q14974 whole entry): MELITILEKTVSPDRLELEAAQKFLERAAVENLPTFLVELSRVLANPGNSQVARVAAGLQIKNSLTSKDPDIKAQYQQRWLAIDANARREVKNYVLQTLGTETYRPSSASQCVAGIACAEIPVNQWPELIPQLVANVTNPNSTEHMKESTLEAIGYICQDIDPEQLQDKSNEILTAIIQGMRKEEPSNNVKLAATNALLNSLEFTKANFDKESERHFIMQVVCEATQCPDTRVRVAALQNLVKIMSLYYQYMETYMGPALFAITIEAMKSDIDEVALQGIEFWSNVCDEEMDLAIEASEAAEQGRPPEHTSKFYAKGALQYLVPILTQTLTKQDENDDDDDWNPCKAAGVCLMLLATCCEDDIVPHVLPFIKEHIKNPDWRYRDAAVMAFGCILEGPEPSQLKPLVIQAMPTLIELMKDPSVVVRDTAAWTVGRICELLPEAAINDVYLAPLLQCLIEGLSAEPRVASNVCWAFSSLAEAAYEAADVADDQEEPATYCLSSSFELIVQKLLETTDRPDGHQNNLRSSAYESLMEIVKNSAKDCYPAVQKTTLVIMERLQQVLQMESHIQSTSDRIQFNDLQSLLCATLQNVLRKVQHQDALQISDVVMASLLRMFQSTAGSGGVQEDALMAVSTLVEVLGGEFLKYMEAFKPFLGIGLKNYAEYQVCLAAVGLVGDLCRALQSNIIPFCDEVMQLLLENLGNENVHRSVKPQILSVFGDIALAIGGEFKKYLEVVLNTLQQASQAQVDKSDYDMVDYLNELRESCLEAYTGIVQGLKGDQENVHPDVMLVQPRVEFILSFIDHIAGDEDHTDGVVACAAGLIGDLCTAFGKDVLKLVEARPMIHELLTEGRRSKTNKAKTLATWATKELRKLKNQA

Row | effect of a mutation on the interaction | Variant
1 | decreasing interaction | E341A
